# Measured values from IntAct's records for PubMed 16824542.
# B1: SH2B adapter protein 2 (Rattus norvegicus (Rat)), Q9Z200 (parent)
# chain: MNGATPGSAAAPAPVPDWRQFCELHAQVAAVDFAHKFCRFLRDNPTYDTPDAGTSFSRHFAANFLAVFSEEVRRVLGTAADTMEPEPAVTSVTSALKTATYGHSRSSEDVSAHVATKARVRKGFSLRNMSLCVVDGVRDLWHRRASPEPEGGATPKTTEPVSEPRDKWTRRLRLARTLAAKVELVDIQREGALRFMVADDAASGPGGTAQWQKCRLLLRRAVAGERFRLEFFVPPKASRPKVSIPLSAIIEVRTTMPLEMPEKDNTFVLKVENGAEYILETIDSLQKHSWVADIQGCVDPGDSEEDTGLSCARGGCLASRVTSCSCELLTEADMPRPPETMTAVGAVVTAPHGRARDTVGESLAHVPLETFLQTLESSGGVSESNNTGDEGAELDPDAEAELELSDYPWFHGTLSRVKAAQLVLAGGPRSHGLFVIRQSETRPGECVLTFNFQGKAKHLRLSLNGHGQCHVQHLWFQSVFDMLRHFHTHPIPLESGGSADITLRSYVRAQGPPPDPGPAPNTAAPVPACWTEPAGQHYFSSLATATCPPTSPSNGAGASSSSGSSSSATSVPPRPAEGPLSARSRSNSTEHLLEAASGATEEPADATLGRARAVENQYSFY
# Variants of: B1
# Settings: with insr_human INSR
row,effect of a mutation on the interaction,Variant
1,disrupting interaction,R460A
2,decreasing interaction,R442A
3,decreasing interaction,W475H
